# From the supplement of paper PMC9170038
# System: K4 kissing-loop RNA reporter
# Test: apparent KD of K4 kissing-loop reporter; higher = weaker reporter binding
# Conditions: Eterna round: R107
# Experimental: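 RNA-MaP round R107: designed RNA switches with theophylline, tryptophan, arginine or FMN aptamers are transcribed on-chip within common flanks. They are titrated with a labelled K4 kissing-loop RNA reporter in RNA-MaP buffer (100 mM Tris pH 7.5, 80 mM KCl, 4 mM MgCl2), without ligand or with the indicated ligand. Median apparent KD per design.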
# [1] = input ligand: theophylline 20 uM
# [2] = input ligand: tryptophan 2.4 mM
# 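Note: bound reporter read as fluorescence of individual clusters on recovered sequencing chips by microscopy, with normalized cluster intensities fitted with a binding model.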
Sequence,apparent KD of K4 kissing-loop reporter (input ligand: FMN 200 uM),apparent KD of K4 kissing-loop reporter (input ligand: arginine 13.2 mM),apparent KD of K4 kissing-loop reporter (input ligand: none),apparent KD of K4 kissing-loop reporter [1],apparent KD of K4 kissing-loop reporter [2]
AAGACCUGCAUCGAUACCAGCCCAGUGAUGUUGGGCUGCUCUCCAUGGGUGCCAGACACGGGCCCUUGGCAGCGAGGUAGGGCCC [Zazadilabi],0.136 µM,0.106 µM,0.117 µM,0.0931 µM,0.103 µM
AAGAGAGCGAGAAGGAGCGAGAAAGCUAGUGCAUAUGCACUAGCAAAGCAGUGAUGUUGCACUCAGGUAGGUCGCUCGCUCUCAA [AK1.2 SS Arginine B],0.384 µM,0.292 µM,0.35 µM,0.395 µM,0.291 µM
AAGCAGUCACCCGAAGCCAUCGAAGAUGGACGAGGACCGGUACGGCCGCCACUCGGAGUGAUGUUCCGAAGACUGCAAAAUAAAA,0.269 µM,0.272 µM,0.302 µM,0.304 µM,0.412 µM
AAGCAGUCACUCGAAAUCAUCGAAGAUGAACGAGGACCGGUACGGCCGCCACUCGGAGUGAUGUUCCGAAGACUGCAAAAUAAAA [MatMod 1 - Jieux - Exclusion - Tryptophan A],0.593 µM,0.41 µM,0.475 µM,0.477 µM,0.106 µM
AAGCAGUCACUCGAACCCAUCGAAGAUGGGCGAGGACCGGUACGGCCGCCACUCGGAGUGAUGUUCCGAAGACUGCAAAAUAAAA,0.329 µM,0.367 µM,0.293 µM,0.341 µM,0.555 µM
AAGCAGUCACUCGAAGCCAUCGAAGAUGGGCGAGGACCGGUACGGCCGCCACUCGGAGUGAUGUUCCGAGGACUGCAAAAUAAAA [MatMod 4 - Jieux - Exclusion - Tryptophan A],0.507 µM,0.365 µM,0.35 µM,0.299 µM,0.311 µM
AAGCAGUCACUCGACACCAUCGAAGAUGGGCGAGGACCGGUACGGCCGCCACUCGGAGUGAUGUUCUGAUGACUGCAAAAUAAAA [MatMod 9 - Jieux - Exclusion - Tryptophan A],0.0999 µM,0.0601 µM,0.0863 µM,0.158 µM,0.0756 µM
AAGCAGUCACUCGACGCCAUCGAAGAUGGGCGAGGACCGGUACGGCCGCCACUCGGAGUGAUGUUCCGAAGACUGCAAAAUAAAA [MatMod 6 - Jieux - Exclusion - Tryptophan A],0.356 µM,0.317 µM,0.384 µM,0.329 µM,0.48 µM
AAGCAGUCACUCGCAGCCAUCGAAGAUGGUCGAGGACCGGUACGGCCGCCACUCGGAGUGAUGUUCCGAAGACUGCAAAAUAAAA,0.281 µM,0.259 µM,0.282 µM,0.325 µM,0.4 µM
AAGCAGUCAGGAUCGAAGAUCCUGCAAUACCGAGGACCGGUACGGCCGCCACUCGGAGUGAUGUUCCGAAGACUGCAAAAUAAAA [#SwitchBubble 7],0.436 µM,0.255 µM,0.243 µM,0.0579 µM,0.152 µM
AAGCAGUUCUCAAAGAGUACUGCAGGACAGCAGGAUAUAGUGAUGUUGAGAAGGGCUGUCCCGUCUGCAUGAAACAUGCAGACGA [Simply curious],1.35 µM,0.688 µM,0.808 µM,1.29 µM,0.688 µM
AAGCCAUACUCGGCCGCCACUUACUUCGUUGCAGUGAUGUUGCACACGAAUCCGUCAUAGCAAAUAAGGACCGGGAGAUAUACCG [theeternabot_exclusion_KL_Trp_B_19],0.0893 µM,0.0893 µM,0.0951 µM,0.0875 µM,0.0863 µM
AAGGUUUAGCACGAUACCAGCCUGGAGGCCAGUGAUGUUGGCCGAUUUGAACAGAAUUAAGGCCCUUGGCAGCGUCUCUAAAACC [Dierra],0.191 µM,0.18 µM,0.192 µM,0.144 µM,0.176 µM
AAGUACACGAUAGUGUACACCUAGUGAUGUUAGGAUAUGCAGAUAUGCAGAAGGAACAAGUCAUCUGACAAUAGUCGGAUGACAA [FmnAX 6 #OpenEnded #K4Early],0.577 µM,0.0755 µM,0.109 µM,0.11 µM,0.098 µM
AAGUAGCUCUCGGCCGCCACUCCUCAGUGAUGUUGAGAUUUUUUCUGCCAAUUGGCGUUUUUUUAGAGGACCGGGAGAGCUACAA [AK1 SS Tryptophan B],0.332 µM,0.365 µM,0.339 µM,0.291 µM,0.124 µM
AAGUCAUAUAGAAGGAGCGUGUUUUUUAAUUUGUUUUCAUGAUCGAGUGAUGUUCGAUAUACACAGGUAGGUCGCUGUAUAAUAA [hbob_SS_Arginine_B_2t142],0.119 µM,0.141 µM,0.131 µM,0.127 µM,0.106 µM
AAGUGAUGUUGUAGUGAUGUUGUGAUGUUGCAGGAUAUAUAGUGAUGUAGAAGGGUAAGUACUCAUGUUGUUAGUAAGUGAUGUU [bttutmullin],0.0915 µM,0.0432 µM,0.0817 µM,0.0637 µM,0.0742 µM
AAGUGGGAACGGCCCAAUAAAGUGUUUGUCAAGGAUAUUAUUCACAUAAGAAGGUGACAGACCACCUCCGGAGUGAUGUUUUGGA [theeternabot_sameState_KL_FMN_A_42],0.581 µM,0.443 µM,0.719 µM,0.508 µM,0.539 µM
AAGUUAUGAUCUGAUACCAGACUUUAUCUUGUUUAUAAGUCAAGUGAUGUUUGACUAUUAGUCCCUUGGCAGCAGUAUUGUUUAA [#18 K4 Theophylline B Same State],0.263 µM,0.268 µM,0.302 µM,0.228 µM,0.255 µM
AAGUUGAACUGAAGGAGCGAGAAAUAGAAUGUAAGAAUAUAUGCUAGUGAUGUUAGAAAUUCUCAGGUAGGUCGCAGUAAGAAUU [V1],0.368 µM,0.357 µM,0.442 µM,0.51 µM,0.317 µM
AAUAAUGGAGUGAUGUUCCAGUAAUGGGAUACCAGACAUGAAAAUGUCCCUUGGCAGCUCAAAGGUCUAGUGAUGUUAUAAAGAA [KL-SSTheo-A6],0.475 µM,0.51 µM,0.554 µM,0.401 µM,0.377 µM

Sequence,apparent KD of K4 kissing-loop reporter (input ligand: FMN 200 uM),apparent KD of K4 kissing-loop reporter (input ligand: arginine 13.2 mM),apparent KD of K4 kissing-loop reporter (input ligand: none),apparent KD of K4 kissing-loop reporter [1],apparent KD of K4 kissing-loop reporter [2]
AAUAUAUAGUGAAGGAGCGCGAUAAGCAGUGAUGUUGCUUAGUUAUUAGUGUUUAUUUUUACGCAGGUAGGUCGCACUAUAUAUA [JR_ExcArginiB_Sub017],0.115 µM,0.105 µM,0.114 µM,0.101 µM,0.114 µM
AAUAUCUAGUAUAUUUUUAAUAAAACAGAUACCAGUGAUAAUAGACACCCUUGGCAGCUGGUCGAGUGAUGUUCGUUUAUAUUAA [JR_SSTheophyA_Sub006],0.0855 µM,0.0836 µM,0.104 µM,0.176 µM,0.0573 µM
AAUAUGAAGCAGUGAUGUUGCUUAUGAGAAGGAGCGCACGAAAGUGCAGGUAGGUCGCUCAGCCAAGUGGACGAAAACGUCCACA [whbob_SS_Arginine_A_sa107],0.0983 µM,0.0999 µM,0.0866 µM,0.0872 µM,0.091 µM
AAUGCAUAGUGAAGGAGCGCGAUUUGCAGUGAUGUUGCAAAUUUAAACAAUCUUAUCUUUUCGCAGGUAGGUCGCACUAUGCAUA [JR_Nu_SSArginiB_Sub021],0.0941 µM,0.0903 µM,0.0882 µM,0.0809 µM,0.0887 µM
AAUGUACAGGGAAGGAGCGUAGUCCAGUGAUGUUGGAGUUAAAUACCAGUGAUGUUGGUUAUACAGGUAGGUCGCCCUAAAGUGC [Exclusion Arginine B Gf 4],0.087 µM,0.0653 µM,0.0809 µM,0.0843 µM,0.076 µM
AAUUUAUAUUUAUUCUUUAAAUGUUCAGAAGGAGCGUGAAUUAUCACAGGUAGGUCGCUGAGCUAGUGAUGUUAGCUAUAUACUA [JR_ExcArginiA_Sub007],0.0503 µM,0.0953 µM,0.0677 µM,0.097 µM,0.0475 µM
ACAAAAGUGAUGUUUUUGAACGUGCGCGAUACCAGAAAUGUCUUCUUCCCUUGGCAGCGCUAUUACUUGUAAGAAAGUACGUUUC [theeternabot_sameState_KL_Theo_A_17],0.969 µM,0.528 µM,0.87 µM,0.774 µM,0.49 µM
ACAAUGAUCAAAGGAUAUCGUAAGUUAUACAUCACGCGAUGAUUCAGAGGCGAGUGAUGUUUGUCUCGAGAAGGUUGGUACCGUC [theeternabot_exclusion_KL_FMN_B_37],0.366 µM,0.539 µM,0.521 µM,0.599 µM,0.568 µM
ACACUAUCGUCAUAGACGGUAGUGAAAGCUGAGGAUAUGAGUGAUGUUAGAAGGUAGCAAGACUGUAUCGAAUAGAUACAGUCAA [FmnA 5 #K4BetweenAptamer #OpenEnded],0.227 µM,0.111 µM,0.163 µM,0.162 µM,0.141 µM
ACAUGACGUGCGCCCGUCAUGAAACGUGCAAAGGAUAUUCCGUUUUGAAGAAGGUUGCGGUAGUGUAGUGAUGUUGCUCCGCCGU [theeternabot_sameState_KL_FMN_A_11],0.512 µM,0.36 µM,0.343 µM,0.315 µM,0.347 µM
ACCAUCAAAGAUGGCCAGGACUCCGCUGAUACCAGAGUGGAAACACUCCCUUGGCAGCAGGUGAGUGAUGUUCACAGUCCAUGGA [Omel KL Theo A SS B v4],0.374 µM,0.348 µM,0.421 µM,0.38 µM,0.341 µM
ACCGCAUUGGGAUGAUCCCAAUGCGCUGGUCGAGGACCGGUACGGCCGCCACUCGUCCAGUGAUGUUGGAAUUGGGCUACUGAAG [KL-XTryp-A11],0.134 µM,0.0867 µM,0.183 µM,0.195 µM,0.0611 µM
ACGACGCAUAGUGAUACCAGCAUUAUAUGAGUGAUGUUCUACCUAAAAUGGUAAUAAUUAUGCCCUUGGCAGCACUAUGCGUCAG [KL-SSTheoB3],0.34 µM,0.4 µM,0.409 µM,0.501 µM,0.247 µM
ACGAUUUACAGAAGGAGCGUGUAUUUAUCUACAAUUUUCUUAGCGAGUGAUGUUCGUUAUACACAGGUAGGUCGCUGUAUAUCGA [JR_ExcArginiB_Sub013],0.185 µM,0.214 µM,0.201 µM,0.199 µM,0.174 µM
ACGCCGAGGACGGCCGCCACUAUGACGAAGUCCGUUCCUAUUACUGCGCGAGUGAUGUUCACGACUAGGACCGGGUCUAUGAGCU [theeternabot_exclusion_KL_Trp_B_28],0.775 µM,0.708 µM,0.843 µM,0.771 µM,0.631 µM
ACGGCGCUGGAACCAGUAAUGGGAAGAAUGCGAGGACCGGUACGGCCGCCACUCGCUUCCAGUGAUGUUGGAAGUGAGCCAACAA [Geerzaedre],0.272 µM,0.275 µM,0.304 µM,0.277 µM,0.181 µM
ACGGGUCGACGAAGGAGCGCCGUGCAGUGAUGUUGCAGUUAGAUCCAGUGAUGUUUGGGCCGGCAGGUAGGUCGCGUCGACUCAU [Exclusion Arginine B GF 21],0.344 µM,0.225 µM,0.278 µM,0.291 µM,0.243 µM
ACGUCACGUAAACUCGUGGUUUCGAUCGAUACCAGUAGCGAGAGUUACCCUUGGCAGCGACAUGAGUGAUGUUCAUGUACGAAGA [KL-XTheoA1],0.101 µM,0.0891 µM,0.097 µM,0.102 µM,0.0917 µM
ACGUCACGUAUACUCGUGGUUUCGAUCGAUACCAGUAGCGAGAGUUACCCUUGGCAGCGACAUGAGUGAUGUUCAUGUGCGAAGA [KL-XTheo-A3 #analogue],0.118 µM,0.106 µM,0.112 µM,0.104 µM,0.111 µM
ACGUCACGUAUACUGGUGGUUUCGAUCGAUACCAGUAGCGAGAGUUACCCUUGGCAGCGACAUGAGUGAUGUUCAUGUAUGAAGA [KL-XTheo-A1 #analogue],0.1 µM,0.111 µM,0.102 µM,0.113 µM,0.0957 µM
ACGUCCGGGUUAAUCGUGGGCGUGGUGGAUACCAGUUCUUCAAUGAACCCUUGGCAGCCACGUGAGUGAUGUUCACGUGCGAUGA [#15 K4 Theophylline A Exclusion],0.0987 µM,0.0833 µM,0.0895 µM,0.0887 µM,0.0886 µM
